What is called Kd is the concentration at which binding is half-saturated.

From paper PMC2935386, “Dissecting the Relation between a Nuclear Receptor and GATA: Binding Affinity Studies of Thyroid Hormone Receptor and GATA2 on TSHβ Promoter” come the findings set out here.

In data set [1] the target is T1, TRβ1 DBD-LBD (TR DL, TRβ1ΔAB) (human, UniProt P10828 102-461).
T1 sequence: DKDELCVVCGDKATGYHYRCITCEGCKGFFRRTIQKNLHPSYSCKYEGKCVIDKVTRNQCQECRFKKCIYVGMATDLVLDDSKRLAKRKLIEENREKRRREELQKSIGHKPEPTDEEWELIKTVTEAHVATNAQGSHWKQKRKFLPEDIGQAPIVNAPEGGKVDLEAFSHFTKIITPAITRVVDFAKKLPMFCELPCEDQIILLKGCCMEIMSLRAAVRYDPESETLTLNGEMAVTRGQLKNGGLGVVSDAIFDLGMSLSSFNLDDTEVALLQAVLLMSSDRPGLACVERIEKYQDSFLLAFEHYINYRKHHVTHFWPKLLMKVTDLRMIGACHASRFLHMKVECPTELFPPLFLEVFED
Description: fluorescence anisotropy; no T3; Hill n 3.5±0.1; Fluorescence anisotropy: 10 nM DNA, 20 mM Hepes pH 8.0, 50 mM NaCl, 1 mM MgCl2, 3 mM DTT, 5% glycerol, 10°C; agarose gel 1.3% in 0.5x TBE. As to conditions: protein: recombinant; tags: His (pET28a); chain copies: 2; label: 5' fluorescein (FITC) on forward strand; blunt.

Data set [2] deals with T1, TRβ1 DBD-LBD (TR DL, TRβ1ΔAB). Description: fluorescence anisotropy; no T3; up to 10000 nM; Fluorescence anisotropy: 10 nM DNA, 20 mM Hepes pH 8.0, 50 mM NaCl, 1 mM MgCl2, 3 mM DTT, 5% glycerol, 10°C; agarose gel 1.3% in 0.5x TBE. As to conditions: protein: recombinant; tags: His (pET28a); chain copies: 2; label: 5' fluorescein (FITC) on forward strand; blunt. In general terms: In fluorescence polarisation assays a small probe gives low polarisation when free and higher when bound to something large.

The target in data set [3] is T2, GATA2-Zf (UniProt P23769 291-412). Description: fluorescence anisotropy; Hill n 1.3±0.4; Fluorescence anisotropy: 10 nM DNA, 20 mM Hepes pH 8.0, 50 mM NaCl, 1 mM MgCl2, 3 mM DTT, 5% glycerol, 10°C; agarose gel 1.3% in 0.5x TBE. The conditions noted are these: protein: recombinant; tags: His, thrombin treated; label: 5' fluorescein (FITC) on forward strand; blunt.
T2 sequence (P23769 291-412): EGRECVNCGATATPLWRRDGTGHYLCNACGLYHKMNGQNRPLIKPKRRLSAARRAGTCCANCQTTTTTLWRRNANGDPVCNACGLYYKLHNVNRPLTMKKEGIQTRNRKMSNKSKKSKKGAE
Data set [4] has as its target T1, TRβ1 DBD-LBD (TR DL, TRβ1ΔAB). As to the kind of experiment: fluorescence anisotropy; no T3; Hill n 1±0.1; Fluorescence anisotropy: 10 nM DNA, 20 mM Hepes pH 8.0, 50 mM NaCl, 1 mM MgCl2, 3 mM DTT, 5% glycerol, 10°C; agarose gel 1.3% in 0.5x TBE. The conditions noted are these: protein: recombinant; tags: His (pET28a); chain copies: 2; label: 5' fluorescein (FITC) on forward strand; blunt.

For data set [5] the target is unchanged. As to the kind of experiment: fluorescence anisotropy; T3; Hill n 2±0.4; Fluorescence anisotropy: 10 nM DNA, 20 mM Hepes pH 8.0, 50 mM NaCl, 1 mM MgCl2, 3 mM DTT, 5% glycerol, 10°C; agarose gel 1.3% in 0.5x TBE. The conditions noted are these: protein: recombinant; tags: His (pET28a); chain copies: 2; label: 5' fluorescein (FITC) on forward strand; blunt.
Data set [6] concerns the target T2, GATA2-Zf. Description: fluorescence anisotropy; Hill n 3.1±0.4; Fluorescence anisotropy: 10 nM DNA, 20 mM Hepes pH 8.0, 50 mM NaCl, 1 mM MgCl2, 3 mM DTT, 5% glycerol, 10°C; agarose gel 1.3% in 0.5x TBE. The conditions noted are these: protein: recombinant; tags: His, thrombin treated; label: 5' fluorescein (FITC) on forward strand; blunt.
Data set [7] concerns the target T3, TRβ1 DBD (TRβ1ΔAB/EF) (human, UniProt P10828 102-198).
T3 sequence: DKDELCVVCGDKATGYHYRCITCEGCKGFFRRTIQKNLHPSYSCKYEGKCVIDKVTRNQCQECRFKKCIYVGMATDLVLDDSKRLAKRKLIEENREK
Description: gel filtration + agarose EMSA; 100 uM protein; DNA label not stated; Fluorescence anisotropy: 10 nM DNA, 20 mM Hepes pH 8.0, 50 mM NaCl, 1 mM MgCl2, 3 mM DTT, 5% glycerol, 10°C; agarose gel 1.3% in 0.5x TBE. The conditions noted are these: protein: recombinant; tags: His (pET28a); label: 5' fluorescein (FITC) on forward strand; blunt. For orientation: In gel filtration, larger molecules generally elute earlier.

B1: TSH NRE (dsDNA)
DNA 1: TGGGTCACCACAGCATCTGCTCACCAATGCAAAGT
DNA 2: ACTTTGCATTGGTGAGCAGATGCTGTGGTGACCCA
Consider B1, for which, in data set [1], the Kd came to 316 ± 29 nM.

B2: GATA-RE (canonical) (dsDNA)
DNA 1: CACTTGATAACAGAAAGTGATAACTCT
DNA 2: AGAGTTATCACTTTCTGTTATCAAGTG
Take B2: in data set [2], the binding result is “no binding”. The dissociation constant (Kd) in data set [3] worked out at 14.9 ± 1.5 nM.

B3: DR4 TRE (dsDNA)
DNA 1: AGTTCAGGTCACAGGAGGTCAGAG
DNA 2: CTCTGACCTCCTGTGACCTGAACT
As to B3, the Kd in data set [4] worked out at 2040 ± 266 nM; in data set [5], 1980 ± 295 nM.

B4: TSH GATA-RE (dsDNA)
DNA 1: TCAATAGATGCTTTTCAGATAAGAA
DNA 2: TTCTTATCTGAAAAGCATCTATTGA
For B4, in data set [6], the Kd is 689 ± 38.7 nM. For the same molecule, the binding result in data set [2] is listed as “no binding”; in data set [7], “binds”.
